This test deals with T1, HLA-A*01:01_… (HLA-PEPTIDE target G2), recombinant biotinylated complex (human, enzymatically biotinylated (BirA)).
T1 construct: also called G2-pHLA
Briefly: phage panning, scFv ELISA.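 Also: scFv binders from three to four bead panning rounds, tested as PPEs by ELISA on streptavidin plates carrying peptide-HLA complex (2 µg/ml), detected via anti-V5 and HRP anti-mouse.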

Description: Phage library screening was carried out according to the overall screening design described above. Three to four rounds of bead-based panning were performed to identify scFv binders to each peptide-HLA complex. For each round of panning, an aliquot of starting phage was set aside for input titering and the remaining phage was depleted three times against Dynabead M-280 streptavidin beads (Life Technologies) followed by a depletion against Streptavidin beads pre-bound with 100 μmoles of pooled negative peptide-HLA complexes. For the first round of panning, 100 μmoles of peptide-HLA complex bound to streptavidin beads was incubated with depleted phage for 2 hours at room temperature with rotation. Three five-minute washes with 0.5% BSA in 1×PBST (PBS+0.05% Tween-20) followed by three five-minute washes with 0.5% BSA in 1×PBS were utilized to remove any unbound phage to the peptide-HLA complex bound beads. To elute the bound phage from the washed beads, 1 ml 0.1M TEA was added and incubated for 10 minutes at room temperature with rotation. The eluted phage was collected from the beads and neutralized with 0.5 ml 1M Tris-HCl pH 7.5. The neutralized phage was then used to infect log growth TG-1 cells (OD₆₀₀=0.5) and after an hour of infection at 37° C., cells were plated onto 2YT media with 100 μg/ml carbenicillin and 2% glucose (2YTCG) agar plates for output titer and bacterial growth for subsequent panning rounds.
96-well and/or 384-well streptavidin coated plates (Pierce) were coated with 2 μg/ml peptide-HLA complex in HLA buffer and incubated overnight at 4° C. Plates were washed three times between each step with PBST (PBS+0.05%). The antigen coated plates were blocked with 3% BSA in PBS (blocking buffer) for 1 hour at room temperature. After washing, scFv PPEs were added to the plates and incubated at room temperature for 1 hour. Following washing, mouse anti-v5 antibody (Invitrogen) in blocking buffer was added to detect scFv and incubated at room temperature for 1 hour. After washing, HRP-goat anti-mouse antibody (Jackson ImmunoResearch) was added and incubated at room temperature for 1 hour.

B1: G2(1G03) scFv (scFv, V domains shown)
VH: EVQLLESGAEVKKPGASVKVSCKASGYTFTSYAMNWVRQAPGQGLEWMGWMNPNSGGTKYAQKFQGRVTMTRDTSTSTVYMELSSLRSEDTAVYYCAREGPAALDVWGQGTLVTVSS
VL: DIQMTQSPSSLSASVGDRVTITCRASQGISRWLAWYQQKPGKAPKLLIYAASTLQPGVPSRFSGSGSGTDFTLTISSLQPEDFATYYCQQSYIAPFTFGPGTKVDIK
On to B1, for which the binding result is reported as “binds”.

B2: G2(1G07) scFv (scFv, V domains shown)
VH: QVQLVQSGAEVKKPGASVKVSCKASGGTFSNYAINWVRQAPGQGLEWMGWISPYSGGTNYAQKFQGRVTMTRDTSTSTVYMELSSLRSEDTAVYYCARDSGSYFDYWGQGTLVTVSS
VL: DIQMTQSPSSLSASVGDRVTITCQASQDISNYLNWYQQKPGKAPKLLIYAASTLQSGVPSRFSGSGSGTDFTLTISSLQPEDFATYYCQQTYAIPLTFGGGTKVEIK
On to B2, for which the binding result is listed as “binds”.

B3: G2(2E07) scFv (scFv, V domains shown)
VH: QVQLVQSGAEVKKPGASVKVSCKASGGTFSSATISWVRQAPGQGLEWMGWIYPNSGGTVYAQKFQGRVTMTRDTSTSTVYMELSSLRSEDTAVYYCAATEWLGVWGQGTTVTVSS
VL: DIQMTQSPSSLSASVGDRVTITCRASQSISTWLAWYQQKPGKAPKLLIYAASSLRSGVPSRFSGSGSGTDFTLTISSLQPEDFATYYCQQSYNTPYTFGQGTKLEIK
Consider B3, for which the binding result is “binds”.

B4: G2(2E03) scFv (scFv, V domains shown)
VH: EVQLLQSGAEVKKPGSSVKVSCKASGGTFSSYAISWVRQAPGQGLEWMGWINPNSGGTISAPNFQGRVTMTRDTSTSTVYMELSSLRSEDTAVYYCARANWLDYWGQGTLVTVSS
VL: DIQMTQSPSSLSASVGDRVTITCRASQSISRWLAWYQQKPGKAPKLLIYAASTVQSGVPSRFSGSGSGTDFTLTISSLQPEDFATYYCQQSYSTPYTFGQGTKLEIK
For B4, the binding result is on record as “binds”.

B5: G2(1C09) scFv (scFv, V domains shown)
VH: QVQLVQSGAEVKKPGASVKVSCKASGYTFSSYNMHWVRQAPGQGLEWMGWINGNTGGTNYAQKFQGRVTMTRDTSTSTVYMELSSLRSEDTAVYYCARGVNVDDFDYWGQGTLVTVSS
VL: DIQMTQSPSSLSASVGDRVTITCRASQTISNYLNWYQQKPGKAPKLLIYAASNLQSGVPSRFSGSGSGTDFTLTISSLQPEDFATYYCQQSYSTPQTFGQGTKVEIK
As to B5, the binding result was “binds”.

B6: G2(1E05) scFv (scFv, V domains shown)
VH: QVQLVQSGAEVKKPGASVKVSCKASGYTFTDYNMHWVRQAPGQGLEWMGWMNPNSGGTNYAQKFQGRVTMTRDTSTSTVYMELSSLRSEDTAVYYCAREEDYWGQGTLVTVSS
VL: DIQMTQSPSSLSASVGDRVTITCRASQSIGRWLAWYQQKPGKAPKLLIYAASSLQSGVPSRFSGSGSGTDFTLTISSLQPEDFATYYCQQSYSTPYSFGQGTKVEIK
As for B6, the binding result was “binds”.

B7: G2(1C02) scFv (scFv, V domains shown)
VH: QVQLVQSGAEVKKPGASVKVSCKASGYTFTSYGISWVRQAPGQGLEWMGWINPNSGGTNYAQKFQGRVTMTRDTSTSTVYMELSSLRSEDTAVYYCARGWELGYWGQGTLVTVSS
VL: DIQMTQSPSSLSASVGDRVTITCRASQSISNWLAWYQQKPGKAPKLLIYAASSLQSGVPSRFSGSGSGTDFTLTISSLQPEDFATYYCQQSYSAPYTFGPGTKVDIK
In the case of B7, the binding result is “binds”.

B8: G2(1F12) scFv (scFv, V domains shown)
VH: QVQLVQSGAEVKKPGASVKVSCKASGYTFTDYYMHWVRQAPGQGLEWMGWIYPNTGGTNYAQKFQGRVTMTRDTSTSTVYMELSSLRSEDTAVYYCARDYGGYVDYWGQGTLVTVSS
VL: DIQMTQSPSSLSASVGDRVTITCQASQDIGSWLAWYQQKPGKAPKLLIYATSSLQSGVPSRFSGSGSGTDFTLTISSLQPEDFATYYCQQSYSTPYTFGQGTKLEIK
Consider B8, for which the binding result was “binds”.

B9: G2(2C11) scFv (scFv, V domains shown)
VH: QVQLVQSGAEVKKPGASVKVSCKASGGTFNNYAFSWVRQAPGQGLEWMGWINPNSGGTNYAQKFQGRVTMTRDTSTSTVYMELSSLRSEDTAVYYCARDGVAVASDYWGQGTLVTVSS
VL: DIQMTQSPSSLSASVGDRVTITCRASQGISNYLAWYQQKPGKAPKLLIYAASTLQSGVPSRFSGSGSGTDFTLTISSLQPEDFATYYCQQSYSVPYSFGQGTKLEIK
B9: the binding result is listed as “binds”.

B10: G2(1D07) scFv (scFv, V domains shown)
VH: QVQLVQSGAEVKKPGASVKVSCKASGYTFTSYGISWVRQAPGQGLEWMGWISAYNGYTNYAQNLQGRVTMTRDTSTSTVYMELSSLRSEDTAVYYCARDQFYGGNSGGHDYWGQGTLVTVSS
VL: DIQMTQSPSSLSASVGDRVTITCQASQDISNYLNWYQQKPGKAPKLLIYAASSLQSGVPSRFSGSGSGTDFTLTISSLQPEDFATYYCQQSYSTPLTFGGGTKLEIK
Consider B10, for which the binding result is given as “binds”.

B11: G2(2C06) scFv (scFv, V domains shown)
VH: QVQLVQSGAEVKKPGASVKVSCKSSGYSFDSYVVNWVRQAPGQGLEWMGWINPNSGGTNYAQKFQGRVTMTRDTSTSTVYMELSSLRSEDTAVYYCARDWVLDYWGQGTLVTVSS
VL: DIQMTQSPSSLSASVGDRVTITCRASQTISSWLAWYQQKPGKAPKLLIYAASSLQSGVPSRFSGSGSGTDFTLTISSLQPEDFATYYCQQSYSTPFTFGPGTKVDIK
As to B11, the binding result was “binds”.

B12: G2(1H10) scFv (scFv, V domains shown)
VH: QVQLVQSGAEVKKPGASVKVSCKASGGTFSSYAISWVRQAPGQGLEWMGWINPNNGGTNYAQKFQGRVTMTRDTSTSTVYMELSSLRSEDTAVYYCARDSGVGMDVWGQGTTVTVSS
VL: DIQMTQSPSSLSASVGDRVTITCRASQSISKWLAWYQQKPGKAPKLLIYAASSLQSGVPSRFSGSGSGTDFTLTISSLQPEDFATYYCQQSYSAPYTFGQGTKVEIK
Regarding B12, the binding result is “binds”.

B13: G2(2B08) scFv (scFv, V domains shown)
VH: QVQLVQSGAEVKKPGASVKVSCKASGYTLTSHLIHWVRQAPGQGLEWMGWINPNSGGTNYAQKFQGRVTMTRDTSTSTVYMELSSLRSEDTAVYYCARERRSGMDVWGQGTTVTVSS
VL: DIQMTQSPSSLSASVGDRVTITCRASQGISNYLAWYQQKPGKAPKLLIYAASRLESGVPSRFSGSGSGTDFTLTISSLQPEDFATYYCQQSYSIPLTFGGGTKVEIK
As for B13, the binding result was “binds”.

B14: G2(1D03) scFv (scFv, V domains shown)
VH: QVQLVQSGAEVKKPGASVKVSCKASGYTFTRYTINWVRQAPGQGLEWMGWINPNSGGANYAQKFQGRVTMTRDTSTSTVYMELSSLRSEDTAVYYCARGDWFDPWGQGTLVTVSS
VL: DIQMTQSPSSLSASVGDRVTITCRASQSISTWLAWYQQKPGKAPKLLIYAASTLQSGVPSRFSGSGSGTDFTLTISSLQPEDFATYYCQQSYSTPYTFAQGTKLEIK
For the molecule B14, the binding result is listed as “binds”.

B15: G2(2H11) scFv (scFv, V domains shown)
VH: QVQLVQSGAEVKKPGASVKVSCKASGYTFSDYYVHWVRQAPGQGLEWMGWINPNSGGTNYAQKFQGRVTMTRDTSTSTVYMELSSLRSEDTAVYYCARGEWFDPWGQGTLVTVSS
VL: DIQMTQSPSSLSASVGDRVTITCRASQSISSWLAWYQQKPGKAPKLLIYAASTLQSGVPSRFSGSGSGTDFTLTISSLQPEDFATYYCQQSYSTPFTFGPGTKVDIK
On to B15, for which the binding result is “binds”.

B16: G2(2H10) scFv (scFv, V domains shown)
VH: QVQLVQSGAEVKKPGASVKVSCKASGYSFTRYNMHWVRQAPGQGLEWMGWINPNSGGTNYAQKFQGRVTMTRDTSTSTVYMELSSLRSEDTAVYYCARDGYSGLDVWGKGTTVTVSS
VL: DIQMTQSPSSLSASVGDRVTITCRASQSISSWLAWYQQKPGKAPKLLIYGASSLQSGVPSRFSGSGSGTDFTLTISSLQPEDFATYYCQQSYSVPYSFGQGTKLEIK
In the case of B16, the binding result was “binds”.

B17: G2(1G12) scFv (scFv, V domains shown)
VH: QVQLVQSGAEVKKPGASVKVSCKASGYTFTSYLMHWVRQAPGQGLEWMGWISPNSGGTNYAQKFQGRVTMTRDTSTSTVYMELSSLRSEDTAVYYCARGDWFDPWGQGTLVTVSS
VL: DIQMTQSPSSLSASVGDRVTITCQASQDISNYLNWYQQKPGKAPKLLIYGASRLQSGVPSRFSGSGSGTDFTLTISSLQPEDFATYYCQQSYSTPYTFGQGTKLEIK
For B17, the binding result was “binds”.

B18: G2(1B10) scFv (scFv, V domains shown)
VH: EVQLLESGAEVKKPGASVKVSCKASGYTFTSYGISWVRQAPGQGLEWMGWINPYSGGTNYAQKLQGRVTMTRDTSTSTVYMELSSLRSEDTAVYYCARANWLDYWGQGTLVTVSS
VL: DIQMTQSPSSLSASVGDRVTITCRASQSISSWLAWYQQKPGKAPKLLIYAASTLQSGVPSRFSGSGSGTDFTLTISSLQPEDFATYYCQQSYSSPYTFGPGTKVDIK
As for B18, the binding result is listed as “binds”.

B19: G2(1G01) scFv (scFv, V domains shown)
VH: QVQLVQSGAEVKKPGASVKVSCKASGYTFTSYGISWVRQAPGQGLEWMGWMNPNSGGTNYAQKFQGRVTMTRDTSTSTVYMELSSLRSEDTAVYYCARGEWLDYWGQGTLVTVSS
VL: DIQMTQSPSSLSASVGDRVTITCRASQTISSWLAWYQQKPGKAPKLLIYAASSLQSGVPSRFSGSGSGTDFTLTISSLQPEDFATYYCQQSYGVPYTFGQGTKVEIK
On to B19, for which the binding result is on record as “binds”.

B20: G2(1C03) scFv (scFv, V domains shown)
VH: QVQLVQSGAEVKKPGASVKVSCKASGYTFTTYYMHWVRQAPGQGLEWMGWINPNSGGTNYAQKFQGRVTMTRDTSTSTVYMELSSLRSEDTAVYYCARSDWFDPWGQGTLVTVSS
VL: DIQMTQSPSSLSASVGDRVTITCRASQSVSNWLAWYQQKPGKAPKLLIYAASSLQSGVPSRFSGSGSGTDFTLTISSLQPEDFATYYCQQSYSTPTFGQGTKLEIK
Turning to B20, the binding result is reported as “binds”.

B21: G2(1A10) scFv (scFv, V domains shown)
VH: QVQLVQSGAEVKKPGASVKVSCKASGGTFSSYAFSWVRQAPGQGLEWMGWINPDTGYTRYAQKFQGRVTMTRDTSTSTVYMELSSLRSEDTAVYYCARGDYTGNWYFDLWGRGTLVTVSS
VL: DIQMTQSPSSLSASVGDRVTITCRASRDIGRAVGWYQQKPGKAPKLLIYAASSLQSGVPSRFSGSGSGTDFTLTISSLQPEDFATYYCQQLDSYPFTFGPGTKVDIK
For the molecule B21, the binding result is on record as “binds”.

Values taken from patent US20240059797A1 (GRITSTONE BIO, published 2024).
